From the nanobody polyreactivity screen of Harvey et al. (2022)

Test: yeast display, Sf9 membrane polyspecificity reagent, FACS + sequencing; frameworks hold sequencing errors
Method in brief: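 A nanobody's polyreactivity label depends on the gate it was sorted from. Yeast display cells were stained with 10% biotinylated, detergent-solubilized Sf9 membrane reagent for 1 hour at 4 °C, enriched on streptavidin microbeads and sorted by FACS. The low and high (top ~1%) gates were set on anti-HA fluorescence for expression and streptavidin fluorescence for reagent binding.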

Sequence | polyreactivity (PSR sort gate)
QVQLVESGGGLVQAGGSLRLSCAASGYTLDNYAMGWYRQAPGKERELVAGITFSGGSTFYADSVKGRFTISRDNAKNTVYLQMNSLKPEDTAVYYCAADAEFQADHKYGYWGQGTQVTVSS | low polyreactivity
QVQLVESGGGLVQAGGSLRLSCAASGFTFSYYAMGWYRQAPGKERELVAAISGSGGSTYYADSVKGRFTISRDNAKNTVYLQMNSLKPEDTAVYYCNARWRTRGHPEMYHWGQGTQVTVSS | high polyreactivity
QVQLVESGGGLVQAGGSLRLSCAASGRIFTNYAMGWYRQAPGKERELVATINGGGITNYADSVKVRFTISRDNAKNTVYLQMNSLKPEDNAVYYCATDRLSYGYKPGYTFYYWEQGTQVTVSS | high polyreactivity
QVQLVESGGGLVQAGGSLRISCAASGFTFRYYALGWYRQAPGKERELVAAILSSGGSTYYADSVKGRFTISRDNAKNTVYLQINSLKPVDTAVYYCNKVWDRRYDYWGQGTQVTVSS | high polyreactivity
QVHLVESGGGLVQAGGSLRLSCAASGFTFGIYAMGWYRQAPGKERELVAAIRKGGGSTYYADSVKGRFTISRDNAKNTVYLQMNSLKPEDTAVYYCAADSYRDWHDYWGQGTQVTVSS | low polyreactivity
QVQLVESGGGLVQAGGSLRLSCAASGITFRYYAMGWYRQAPGKERELVATITRGGSTYYADSVKGRFTISRDNAKNTVYLQMNSLKPEDTAVYYCAARQWYRYKVRFDYWGQGTQVTVSS | high polyreactivity
QVQLVESGGGLVQAGGSLRLSCADSGSTFVSYAMGWYRQAPGKERELVAVAISWSGGNTYYADSVKGRFTISRDNAKNTVYLQMNSLKPEDTAVYYCAAYGTTGVYRGPGYDYWGQGTQVTVSS | low polyreactivity
QVHLVESGGGLVQAGGSLRLSCAASASTFQSNAMGWYRQAPGKERELVATITQSGATTYYADSVKGRFTISRDYAKNTVYLQMNSLKPEDTAVYYCNVDTFQKRWFWLDLDGGYWGQGTQVTVSS | low polyreactivity
QVQLVDSGGGLVQAGGSLRLSCAASGRIFGYNAMGWSRQAPGKERELVAAISSGGGTNYADSVKGRFTISRDNAKNTVYLQMNSLKPEDTAVYYCAVRRRRYHTYYRGYDYWGQGTQVTVSS | low polyreactivity
QVQLVESGGGLVQAGGSLRLSCAASGFTFALYTMGSYRQAPGKERELVAAIRSTGSTYADSVKGRFTISRDNAKNTVYLQMNSLKPEDTAVYYCAAQYWRRKKYYYWGQGTQVTVSS | high polyreactivity
QVQLGESWACIVQAGGSLRLSCAASGIISYLYAMGLYRHAPGKERELVAVIRTSDAITYYADSVKGRFTISRDTAKNTVYLQMNSLKPEDTAFYYCGGRPRYYLYGYDYWGQGTQVTVSS | high polyreactivity
QVQLVESGGGLVQAGGSLRLSCAASGSTFGYYAMGWYRQAPGKERELVAAITRGASTYYADSVNGRFTISRDNAKNTVYLQMNSLKPDDTAVYYCAFDTWKVQGASSRYRKMYYWGQGTQVTVSS | low polyreactivity
QVQLVESGGGLVQAGGSLRLSCAASGSIFSYYAMGWYRQAPGKERELVASISWNGTSTYYADSVKGRFTISRDNAKNTVYLQMNSLKPEDTAVYYCNAVLSGWGYFYGLNYWGQGTQVTVSS | low polyreactivity
QVQLVESGGGLVQAGGSLRLSCAASGRTFRRYAMGWYRQAPGKERELVAAISSSTGRTYYADSVKGRFTISRDTAKNTVYLQMNSLKPEDTAVYYCNAVHRYERDYWGQGTQVTVSS | high polyreactivity
QVQLVESGGGLVQAGGSLRLSCAASGRIFEVYTMGWYRQAPGKERELVAAIDRSTGSTYYADSVKGRFTISRDNAKNTVYLQMHSLKPEDTAVYYCAARGTFLGTRPLGRFDYWGQGTQVTVSS | low polyreactivity
QVQLVESGGGLVQAGGSLRLSCAASGSTFGVNAMVWYRQAPGKERELVAGISVDDSTTYYADSVKGRFTISRDNAKNTVYLQMNSLKPEDTAVYYCAAEREKTLYYLSRFDYWGQGTQVTVSS | low polyreactivity
QVQLVESGGGLVQAGGSLRLSCAASGSTFGGYAMGWYRQAPGKERELVATINYSDGSTYYADSVKGRFTISRDNAKNTVYLQMNSLKPEDTAVYYCAKRFGSGWAWFGYWGQGTQVTVSS | low polyreactivity
QVQLVESGGGIVQSGGSLRLSCDASGFIFGGNAMGWYIQAPGKERELVARISSGGITSYADSVKGRFTISRDNAKNTVYLHMNSQKPDDTAVYYCAARNGRIAWMNYWGQGTQVTVSS | low polyreactivity
QVQLVESGGGLVQAGGSLRLSCAASGITFSVNAMGWYRQAPGKERELVASISSGGSTNYADSVKGRFTISRDNAKNTVYLQMNSLKPEDTAVYYCAVAYYPHGREGAHFQYGYDYWGQGTQVTVSS | low polyreactivity
QVQLVESGGGLVQAGGSLRLSCAASGRIFAYYAMGWYRQAPGKESELVAAINWSGDGTNYADSVKGRFTISRDNAKNTVYLQMNSLKPVDTAVYYCAARLGHSVNPGGERWDVEYWGQGTQVTVSS | low polyreactivity
QVQLVESGGGLVQAGGSLRLSCAASGSIFIQYAMGWYRQAPGKERELVAAITSGDDTYYADSVKGRFTISRDNAKNTVYLQMNSLKPEDTAVYYCAKRAHFSSARHVYYIYDYWGQGTQVTVSS | low polyreactivity
QVQLVESGGGLVQAGGSLRLSCAASGIIFQRNDMGWYRQAPGKERELVASITSGGSTNYADSVKGRFTISRDNAKNTVYLQMNSLKPEDTAVYYCARVSVSDYDYWGQGTQVTVSS | low polyreactivity

Sequence | polyreactivity (PSR sort gate)
QVQLVESGVGLVQAGGRLRLSCAASGRIIYIYAMGWYRQAPGKERELVAAITASSGSTNYADSVKGRFTISRDNAKNTVYLQMNSLKPEDTAVYYCSAAPSRTLLRQTKYYYWGQGTQVTVSS | low polyreactivity
QVQLVESGGGLVQAGGSLRLSCAASGMIFKYYVMGWYRQAPGKERELVAAIRWSGGITSYADSVKGRFTISRDNAKNTVYLQMNSLKPEDTAVYYCAVAHSRLRTAYTFSVQRYDYWGQGTQVTVSS | low polyreactivity
QVQLVESGGGLVQAGGSLRLSCAASGRIFHWYAMGWYSQAPGKERELVAAISTDGSTYYADSVKGRFTISRDNAKNTVYLQKNSLKPEDTAVYYCAAVPGYTHLWGGPFDYGGQGTQVTVSS | low polyreactivity
QVQLVESGGGLVQAGGSLRLSCAASGFTFTGYAMGWYRQAPGKERELVAVISSRGGSTYYADSVKGRFTISRDNAKNTVYLQMNSLKPEDTAVYYCAARGSKGFSSPFGYWGQGTQVTVSS | high polyreactivity
QVQLVESGGGLVQAGGSLRLSCAASGFIFKPYDMGWYRQARGKEREFVAAITYSGGRTYYADSVKGRFTISRDNAKNTVYLHMNSLKPEDTAVYYCAADQYWWYWYDYWGQGTQVTVSS | high polyreactivity
QVQLVESGGGLVQAGGSLRLSCAASGRIFYVYGLGWYRQEPGKERELVAAISKRGDNTYYADSVKGRFTISRDNSKNTVYLQMNSLKPEDTAVYYCKVKRYGGRSDYWGQGTQVTVSS | high polyreactivity
QVQLVESGGGLVQAGGSLRLSCAASGSIFRIYAMGWYRQAPGKERELVAGISKSGGSTYYADSVKGRFTISRDNAKNTVYLQMNSLKPEDTAVYYCNARRPSWGLDKYDYWGQGTQVTVSS | low polyreactivity
QVQLVESGGGLVQEGGSLRLSWAASGSTFARYAMGWYRQAPGKERELVAAISRRGGSTYYADSVKGRFTISRDKAKNTVYVQMHRLKPEDTGVSYCAARYGIISSFEYDYWGQGTQVTVSS | high polyreactivity
QVQLEESGGGLVQAGGSLRLSCAASGSTFGYYTMGWYRQAPGKERELVAAISWSGGSTYYADSVKGRFTISRDNAKNTVYLQMNSLKPEDTAVYYCAALGYTYKYYSYYWGQGTQVTVSS | high polyreactivity
QVQLVESGGGLVQAGGSLRLSCAASGSTFGYYAMGWYRQAPGKERELVAAITGSGGCTYYADSVKGRFTISRDNAKNTVYLQMNSLKPEDTAVYYCATPTKFVRDDYWGQGTQVTVSS | low polyreactivity
QVQLVESGGGLVQAGGSLRLSSAASGSTFVQNAMGWYRQAPGKERELVAAISRGGTSTYYADSVKGRFTISRDNAKNTVYLQMNSLKPEDTAVYYCAAYTSYLGYPYDYWGQGTQVTVSS | high polyreactivity
QVQLVESGGGLVQAGGSLRLSCAASGFTIWRYAMGWYRQAPGKERELVAAISRGGSTNYADSVKGRFTISRDNAKKTVYLQMNSLKPEDTAGYYCAASVQYRRLKKFYYWGQGTQVTVSS | high polyreactivity
QVQLVESGGGLVQAGGSLRLSCAASGFTFVRYVMGWYRQAPGKERELVAAISRSGGSTHYADSVKGRFTISRDNAKYTVYLQMNSLKPEDTAVYYCAAASPRWPGQGDYWGEGTQVTVSS | high polyreactivity
QVQLVESGGGLVQAGGSLRLSCAASGSIFDLNAMGWYRQAPGKERELVAAISKSGGSTYYADSVKGRFTISRDNAKNTVYLQMNSLKPEDTAVYYCATSGDRLVWGQGTQVTVSW | low polyreactivity
QVQLVESGGGLVQAGGSLRLSCAASGRTFWRYAMGWYRQAPGKERELVAAITSGGGSTYYADSVKGRFTISRDNAKNTVYLQMNSLKPEDTAVYYCNRAGRGRSFKGDYWGQGTQVTVSS | high polyreactivity
QVQLVESGGGLVQAGGSLRLICAASGIIFPFYVMGWYRQAPGKERELVAAITWSGDGTYYADSVKGRFTISRDNAKNTVYLQMNSLKPEDTAVYYCAAQWYYGGVKYYYWGQGTIVTVSS | low polyreactivity
QLQLVESGGGLVQAGGSLRLSCAASGLTFQYYAMGWYRQAPGKERELVAAISTSGGSTYYADSVKGRFTISRDNAKNTVYLQMNSLKPEDTAVYYCAARGPGYPRIWRKYGYWGQGTQVTVSS | high polyreactivity
QVQLVESGGGLVQAGGSLRLRCAASGSTLSNYAMGWYRQAPGKERELVAAITWSTGSTYYADSVKGRFTISRDNAKNSVYLQMNSLKPEDTAVYYCNAGSQYLLVGLYDYWGQGTQVTVSS | low polyreactivity
QVQLVESGGGLVQAGGSLRLSCAASGRIFGRNAMGWYRQAPGKERELVAAISSSGGTYYADSVKGRFTISRDNAKNTVYLQMNSLKPEDTAVYYCAADGPVTGWFYTAIGWVKYDYWGQGTQVTVSS | high polyreactivity
QVQHVESVGGLVQAGGSLRLICADSGFTFWPYAMGWYRPAPGTERELVAAITSSGSTNYADSVKGRFTISRDNAKNTVYLQMNSMKQEDTAVYYCAADHRPWRFQSSVQLYYYWGQGTQVTVSS | low polyreactivity
QVQLVESGGGLVQAGGSLRLSCAASGSIFGPNAMGRSRQAPGKERELVAAISWVGGSTYYADSVKGRFTISGDIAKNTVYLQMNSLKPEDTAVYYCNASGYHDTALRYDYWGQGTQVTVSS | low polyreactivity
